Test results reported in US20130209489A1 (Amgen, published 2013).
Positions count from the first letter of the chain named.

Target: mature human myostatin (human, UniProt O14793 267-375)
Assay: cell-based or functional assay

B1: anti-myostatin antibody 12A5-1 (antibody, V domains shown)
VH: EVQLVESGGGLVQPGGSLRLSCAASGFTFSNYWMNWVRQAPGKGLEWVAQIRLKSDNYATHYAESVKGRFTISRDNAKNSLYLQMNSLRAEDTAVYYCARGLDYWGQGTTVTVSS
VL: DIQMTQSPSSLSASVGDRVTITCKASQDINKYVAWYQQKPGKAPKLLIYYTSTLQPGVPSRFSGSGSGTDFTFTISSLQPEDIATYYCLQYDNLLYTFGQGTKLEIK
IC50 (nM), C2C12/pMARE luciferase reporter cell myostatin activity assay: 473 nM

B2: anti-myostatin antibody 12A5-18 (antibody, V domains shown)
VH: B1 VH with S30R, M34C, A99T, R100E
VL: B1 VL with T53H
IC50 (nM), C2C12/pMARE luciferase reporter cell myostatin activity assay: 1.45 nM

B3: anti-myostatin antibody 12A5-3 (antibody, V domains shown)
VH: B1 VH with M34C, A99T, R100E
VL: B1 VL with T53F
IC50 (nM), C2C12/pMARE luciferase reporter cell myostatin activity assay: 2.53 nM

B4: anti-myostatin antibody 12A5-9 (antibody, V domains shown)
VH: B1 VH with S30R, M34C, A99T, R100E
VL: B1 VL with S52R
IC50 (nM), C2C12/pMARE luciferase reporter cell myostatin activity assay: 3.98 nM

B5: anti-myostatin antibody 12A5-6 (antibody, V domains shown)
VH: B1 VH with N31R, A99T, R100E
VL: B1 VL with T53F, N93A
IC50 (nM), C2C12/pMARE luciferase reporter cell myostatin activity assay: 1.64 nM

B6: anti-myostatin antibody 12A5-10 (antibody, V domains shown)
VH: B1 VH with S30R, M34C, A99T, R100E
VL: B1 VL with L94K
IC50 (nM), C2C12/pMARE luciferase reporter cell myostatin activity assay: 3.08 nM

B7: anti-myostatin antibody 12A5-8 (antibody, V domains shown)
VH: B1 VH with S30R, M34C, A99T, R100E
VL: B1 VL with S52K
IC50 (nM), C2C12/pMARE luciferase reporter cell myostatin activity assay: 4.96 nM

B8: anti-myostatin antibody 12A5-12 (antibody, V domains shown)
VH: B1 VH with M34L, A99T, R100E
VL: B1 VL with T53W
IC50 (nM), C2C12/pMARE luciferase reporter cell myostatin activity assay: 1.45 nM
